Experimental findings from patent US12318427 are described below.

Common to all, as to assay: cell_activity
Data set [1] relates to ZFP-TF SBS 57930 (artificial). The note with it: AAV6 SYN1, human iPSC-derived neurons, 32 days, ELISA. For orientation: ELISA stands for enzyme-linked immunosorbent assay.
Data set [2] concerns ZFP-TF SBS 65918 R(-5)Q in F1 and F5 (Qm5 phosphate contact mutants) (artificial). The note with it: AAV6 SYN1, human iPSC-derived neurons, 32 days, ELISA; combined with 57890 >10-fold.
The test system of data set [3] is ZFP-TF SBS 57890 (artificial). Conditions: AAV9 hSYN1 in humanized tau mice, 6 wk; mouse tau ~81%; human iPSC neurons tau protein reduced 2-fold (p208).

With “CGGCAGAAGGTGGGCGGTGGCGGCGGCG (double strand) [MAPT target site of 57930/65918]”, the values for the activity (fold tau protein reduction) in data set [1] and in data set [2] were over 5 and over 2, respectively.

As for “TGGTGCTGGAGCTGGTGGGTGGCGGAGA (double strand) [MAPT target site of 57890]”, in data set [3], the activity (% human tau mRNA repression) amounted to 60.
